Test results taken from PMC7160132.
pKd: −log10 of the molar value.

Tested on: XPO5-His6 (Exportin-5) (Homo sapiens)
Experiment: EMSA
Details: no RanGTP, 20 mM HEPES pH 7.3, 150 mM K acetate, 2 mM Mg acetate, 0.05% NP-40, 7 mM 2-mercaptoethanol, 1.5 ug/mL poly dIdC, 0.2% BSA, 25 C 45 min, then 0.3 ug heparin …

pri-mir-15b
pKd (single shifted complex): 8.02

pri-mir-19a
pKd (two complexes with increasing XPO5): 7.84

vtRNA1-1
pKd (1 nM RNA, super-shift at high XPO5): 7.44
